Source: patent publication US11407819B2, “Compositions and use of a fibrinogen binding motif present in EFB and COA for therapeutics and vaccines against Staphylococcus aureus” (priority 2013, dated 2022)
Residue numbers refer to the chain shown, from its start. “Also recorded” adds a separate entry of the source.

Key:
[1] = target: Coa-C311-636, Coa-F311-505, Coa-R0474-505; conditions: all three Coa fragments (Coa-C311-636, Coa-F311-505, Coa-R0474-505)
Description: (§1) Apparent affinity values were generated through analysis of the half maximum binding in ELISA, using […] PRISM® Version 6.01.

[2] = system: Coa-F, Coa-R0, Efb-N, Efb-O, Efb-A binding to Fg; test: Inhibition by FBE5 scFv-Fc of Coa and Efb fragment binding to immobilized human Fg; set-up: species or system Staphylococcus aureus; conditions: scFv-Fc 0.5, 5, 50 μg/ml; Coa-F, Coa-R0, Efb-N, Efb-O 10 nM; Efb-A 750 nM
Procedure: To assess the inhibitory activity of anti-Coa scFv-Fc antibodies, 0.5 μg/well of human Fg was immobilized at 4° C. overnight in 50 mM Carbonate Buffer, pH 9.6. Indicated amounts (50, 5, 0.5 μg/ml) of scFv-Fcs prepared in 2% BSA+1×TBS+0.05% TWEEN® 20 were pre-incubated for 1 hour with a constant concentration of Coa or Efb fragments also prepared in 2% BSA+1×TBS+0.05% TWEEN® 20 at room temperature, 250 rpm shaking. Specifically, Coa-F, Coa-R0, Efb-N and Efb-O were at a fixed concentration of 10 nM; whereas Efb-A was at 750 nM. Fg-binding activity of each protein alone was also checked (no mAb control—0 μg/ml). The Fg-coated plate was blocked with 2% BSA-TBST and washed with PBST. […] Residual bound Coa and Efb fragments were detected with HRP-conjugated (HorseRadish Peroxidase-conjugated) α-GST-tag antibody, except for Efb-N, where an HRP-conjugated α-HIS-tag was used (see FIG. 18). HRP-tagged antibodies were diluted in 2% BSA+1×TBS+0.05% TWEEN® 20 and used at 1:10000 dilution. […] HRP signal was developed using […]™ OPD tablets using manufacturer's guidelines. Binding of Coa and Efb fragments to Fg (no mAb control) was set to 100% and residual binding to Fg of Coa and Efb fragments in the presence of different concentrations of antibodies was calculated and represented.
To assess the inhibitory activity of anti-Coa scFv-Fc antibodies, 0.5 μg/well of human Fg was immobilized at 4° C. overnight in 50 mM Carbonate Buffer, pH 9.6. Indicated amounts (0, 0.5, 5, and 50 μg/ml) of scFv-Fcs were pre-incubated for 1 hour with a constant concentration of Coa or Efb fragments. Specifically, Coa-F, Coa-R0, Efb-N and Efb-O were at a fixed concentration of 10 nM; whereas Efb-A was at 750 nM. Fg-binding activity of each protein alone was also checked (no mAb control—0 μg/ml). The Fg-coated plate was blocked with 2% BSA-PBST and washed with PBST. The pre-incubated mixture of Coa/Efb and anti-Coa scFv-Fc was transferred on the Fg-coated plate. Residual bound Coa and Efb fragments were detected with HRP-conjugated (HorseRadish Peroxidase-conjugated) α-GST-tag antibody, except for Efb-N, where an HRP-conjugated α-HIS-tag was used. Binding of Coa and Efb fragments to Fg (no mAb control) was set to 100% and residual binding to Fg of Coa and Efb fragments in the presence of different concentrations of antibodies was calculated and represented.

Coa-R506-636 = target: T1, Coa-R506-636 (Staphylococcus aureus, UniProt P07767); assay type: binding; conditions: 200 ng/well
T1 construct: the Coa-R is corresponding to the tandem-repeat region covering residue 506-636; GST (N); made in house; host or cells: E. coli BL21
Procedure: (§2) As well, binding was tested against Coa fragments, namely Coa-C311-636. Coa-F311-505. Coa-R0474-505 and Coa-R506-636. Recombinant proteins Efb-N30-105, Efb-A30-67, Efb-O68-98, Coa-C311-636, Coa-F311-505, Coa-R0474-505 and Coa-R506-636 were diluted in 50 mM sodium carbonate pH 9.6 and immobilized at the concentration of 200 ng/well for 1 hour at room temperature. Immobilized proteins were probed for recognition in a solid-phase binding assay with different quantities of LIG40 antibodies after blocking and washing. After washing, varying concentrations of LIG40 scFv-Fc antibodies were diluted in 2% BSA+1×PBS+0.05% TWEEN® 20 and incubated with the immobilized proteins for 1 hour at room temperature with shaking at 250 rpm. Bound scFv-Fcs were detected using polyclonal α-human IgG HRP-conjugated Ab diluted to 1:10000 in 2% BSA+1×PBS+0.05% TWEEN® 20. HRP-conjugated Ab was incubated for 1 hour at room temperature with shaking at 250 rpm.
as §1

Coa-C311-636 = test: Solid-phase binding ELISA of scFv-Fc antibodies to Coa-C311-636; set-up: species or system Staphylococcus aureus; conditions: 200 ng/well
Procedure: as §2, §1

[3] = system: Coa-F311-505 and Coa-R0474-505; test: Solid-phase binding ELISA of LIG40 antibodies to Coa-F311-505 and Coa-R0474-505; set-up: species or system Staphylococcus aureus; conditions: 200 ng/well
Procedure: As well, binding was tested against Coa fragments, namely Coa-C311-636. Coa-F311-505. Coa-R0474-505 and Coa-R506-636. […] Immobilized proteins were probed for recognition in a solid-phase binding assay with different quantities of LIG40 antibodies after blocking and washing. […] HRP signal was developed with […]™ OPD using manufacturers guidelines. These 2 antibodies bound only Coa fragments in a dose dependent manner. No binding to truncated recombinant Efb proteins was observed.
For both antibodies, values in the range of 10^−10-10^−11 M were obtained.

CoaC and CoaR = test: Peptide (CoaRO, CoaRI) inhibition of LIG40 mAbs binding to immobilized CoaC and CoaR; set-up: species or system Staphylococcus aureus; conditions: mAbs 0.5 μg/ml; 200 ng/well
Procedure: To investigate if LIG40 mAbs could be inhibited by CoaRO and CoaRI peptides, CoaC and CoaR (200 ng/well) was immobilized at 4° C. overnight in 50 mM Carbonate Buffer, pH 9.6. A fixed concentration of mAbs (0.5 μg/ml) prepared in 2% BSA+1×TBS+0.05% TWEEN® 20 was added to the wells along with indicated amounts of CoaRO and CoaRI peptides prepared in 1X TBS. Incubation for 1 hour, room temperature, 250 rpm shaking followed. After washing, the levels of bound mAbs were determined using a polyclonal α-human IgG HRP-conjugated Ab diluted 1:10000 in 2% BSA+1×TBS+0.05% TWEEN® 20. […] The development was performed through […]™ OPD tablets following manufacturer's protocol. […] First, to achieve appreciable inhibition high concentration of peptides needed to be used (above 100 μM).
To investigate if LIG40 mAbs could be inhibited by CoaRO and CoaRI peptides, CoaC and CoaR (200 ng/well) was immobilized at 4° C. overnight in 50 mM Carbonate Buffer, pH 9.6. A fixed concentration of mAbs (0.5 μg/ml) was added to the wells along with, indicated amounts of CoaRO and CoaRI peptides. Incubation for 1 hour, room temperature, 250 rpm shaking followed. After washing, […] were incubated with polyclonal α-human IgG HRP-conjugated Ab. […] First, to achieve appreciable inhibition high concentration of peptides needed to be used (above 100 μM).

B1: FBE5-F11: VH SEQ ID NO: 81, VL SEQ ID NO: 111 (antibody, V domains shown)
VH: QVQLQESGGGVVQPGRSLRLSCAASGFTFSSYGMHWVRQAPGKGLEWVAVISYDGSNKYYADSVKGRFTISRDNSKNTLYLQMNSLRAEDTAVYYCAKDLASSGFDYWGQGTLVTVSS
VL: QSVLTQPPSVSAAPGQKVTISCSGSSSNIGNNYVSWYQQLPGTAPKLLIYDNNKRPSGIPDRFSGSKSGTSATLGITGLQTGDEADYYCGTWDSSLSAEVFGGGTKLTVL
- apparent Kd of anti-CoaC mAbs to Coa fragments (EC50 in ELISA) [1]: highest affinity
- inhibition of binding to Fg of all proteins tested [2]: dose dependent inhibition of all proteins tested; also recorded: marked inhibition against all fragments of Coa and Efb

B2: LIG40-D8: VH SEQ ID NO: 100, VL SEQ ID NO: 130; selected against Coa-R506-636 (antibody, V domains shown)
VH: B1 VH with Q1E, Q5V, S52W, K98R, L100Y, A101H, S102G, S103D
VL: DIQMTQSPSSLSASVGDTVTITCRASQDINNYLAWFQQKPGKAPKSLISAASSLQNGVPLRFSGSASGADFTLTISGLQPEDSGTYYCQQYDVFPITFGPGTKVDIK
- binding to Coa-R506-636 (Coa-R506-636): bound
- binding to Coa-C311-636 (Coa-C311-636): bound
- binding to Coa-F311-505 and Coa-R0474-505 [3]: detected to a minor extent; also recorded: minor binding
- inhibition of LIG40 mAb binding to CoaC and CoaR by peptides (CoaC and CoaR): only impaired in its binding activity by CoaRO peptide
